Experimental data reported in patent US7439329B2, “GEF-H1b: biomarkers, complexes assays and therapeutic uses thereof” (Sugen, Inc., priority 2002, dated 2008).

What was measured:
GEF-H1S = biological target: T1, GEF-H1S (Homo sapiens, UniProt Q92974, INS962GETLAETWTR); test: Pull-down of GEF-H1 with PAK4 domains and biotinylated PAK4 peptides; type: binding; settings: biotinylated PAK4 peptides linked to streptavidin beads
T1 sequence (Q92974 with tags, fused parts or gaps): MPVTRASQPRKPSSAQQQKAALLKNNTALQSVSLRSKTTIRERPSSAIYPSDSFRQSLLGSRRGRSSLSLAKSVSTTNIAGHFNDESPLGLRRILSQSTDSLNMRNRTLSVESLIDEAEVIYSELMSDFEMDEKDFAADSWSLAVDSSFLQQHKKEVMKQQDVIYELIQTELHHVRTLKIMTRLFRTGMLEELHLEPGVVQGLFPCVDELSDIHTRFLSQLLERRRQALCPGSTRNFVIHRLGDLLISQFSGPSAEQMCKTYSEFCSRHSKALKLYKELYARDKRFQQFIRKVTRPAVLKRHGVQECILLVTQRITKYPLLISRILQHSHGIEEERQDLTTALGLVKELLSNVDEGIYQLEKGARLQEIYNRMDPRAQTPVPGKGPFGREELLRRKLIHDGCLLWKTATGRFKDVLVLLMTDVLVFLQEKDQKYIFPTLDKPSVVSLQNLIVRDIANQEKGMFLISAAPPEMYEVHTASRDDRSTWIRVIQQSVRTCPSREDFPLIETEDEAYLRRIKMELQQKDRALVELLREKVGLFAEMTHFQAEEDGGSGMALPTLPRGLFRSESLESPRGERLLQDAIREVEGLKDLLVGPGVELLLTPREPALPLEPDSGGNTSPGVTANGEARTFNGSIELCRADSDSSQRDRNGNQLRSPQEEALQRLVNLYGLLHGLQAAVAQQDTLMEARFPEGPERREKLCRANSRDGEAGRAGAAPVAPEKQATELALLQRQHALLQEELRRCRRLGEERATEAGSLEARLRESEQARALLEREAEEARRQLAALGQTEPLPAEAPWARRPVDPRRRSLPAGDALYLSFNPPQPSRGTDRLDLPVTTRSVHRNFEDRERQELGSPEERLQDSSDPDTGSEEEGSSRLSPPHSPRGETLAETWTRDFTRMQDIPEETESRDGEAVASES
Procedure: FIG. 1: (SEQ ID NOs 32-34 respectively in order of appearance) Direct binding of GEF-H1 to PAK4. Lysates were prepared from 293T cells over expressing (a) myc tagged PAK4 alleles or subdomains and incubated with GST, GST-GEF-H1 (787-921) and GST-Maguin-like bound to Glutathione beads (1,2,3,4 bead designation) or (b) GFP-GEF-H1 and incubated with PAK4 biotinylated peptides (291-355) and (276-324) linked to streptavidin beads. An equivalent amount of beads and excess lysates (500 ug) were used. Eluates of beads and total lysates were analysed by SDS-PAGE and immunoblotted with myc or GEF-H1 antiserum; (c) represents a PAK4 gene schematic outlining the regions of PAK4 used to identify the GEF-H1 interaction domain (GID). d, alignment of the GID defined by the minimal binding region of PAK4 with PAK5 and PAK6.
To confirm the in vitro interaction of GEF-H1S with PAK4, bacterially expressed GST-fusion proteins were generated with the identical sequences isolated by phage display, encoding either amino acids 763-921 of GEF-H1S or amino acids 385-555 from the Maguin-2-like protein. These fusion proteins were bound to glutathione beads and utilized in binding assays with 293T lysates expressing exogenous PAK4.
Biotinylated peptides derived from the N-terminal region of PAK4 sequence were used to further map the GEF-H1 binding site. […]

PAK4 = biological target: T2, PAK4 (Homo sapiens, UniProt O96013); test: In vitro kinase assay, phosphorylation of substrates by PAK4; type: biochemical; settings: autoradiography
T2 construct: Glutathione-s-transferase (GST) fused PAK4 (residues 291-591); GST (N); made in house
T2 sequence (O96013 291-591): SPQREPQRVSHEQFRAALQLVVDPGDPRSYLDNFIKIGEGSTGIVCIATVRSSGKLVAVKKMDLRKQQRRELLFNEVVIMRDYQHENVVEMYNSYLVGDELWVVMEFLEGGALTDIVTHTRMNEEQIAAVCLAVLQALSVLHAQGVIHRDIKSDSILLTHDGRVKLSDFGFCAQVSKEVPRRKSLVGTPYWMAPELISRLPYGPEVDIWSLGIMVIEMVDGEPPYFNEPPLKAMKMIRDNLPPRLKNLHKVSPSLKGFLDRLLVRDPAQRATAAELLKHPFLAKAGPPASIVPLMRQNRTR
Procedure: Next examined, was whether GEF-H1 is a PAK4 substrate. In vitro kinase assays were performed using a GEF-H1 GST-fusion protein, a Maguin-2-like GST-fusion protein and GST control protein as substrates for phosphorylation by PAK4.
The cDNA encoding GEF-H1S obtained in the phage display screen was excised and subcloned into pGEX-4T expression vector to allow for recombinant production of protein for in vitro experiments. The GEF-H1S protein was then mixed with PAK4 kinase and incubated such that PAK4 phosphorylated the GEF-H1S. A portion of this kinase reaction was separated by SDS-PAGE and autoradiographed to visualize the extent of phosphorylation. […] SDS-PAGE is a universal protein separation and visualization technique that is described in Laemmli, Nature, 227(259):680-5, 1970.
From the phosphorylation experiments described above, two peptides of GEF-H1S were identified as being targets for PAK4-induced phosphorylation. The GEF-H1S target residues were identified by aligning the PAK4 activation loop peptide with the GEF-H1S polypeptide sequence amino acids 762 to 921.
The following phosphoisomers (phosphate-modified GEF-H1S peptides) were used in PAK4 kinase assays to determine which residues were specifically phosphorylated. Because certain residues were modified to comprise a phosphate moiety (the underlined residues below), they could not be phosphorylated by PAK4.
Glutathione-s-transferase (GST) fused PAK4 (residues 291-591), GEF-H1 amino acids 763-921 (from phage clone 13.8 sequence, matches KIAA0651) and Maguin 2-like (from phage clone 13.32, sequence matches accession # XP-087831) were purified by standard procedures and as previously described 31. Amino acid sequence of peptides spanning GEF-H1b 807-824 #1008 (RRRSLPAGDALYLpSFNPP) (SEQ ID NO: 28), #1009 (RRRpSLPAGDALYLSFNPP) (SEQ ID NO: 29), #1010 (RRRSLPAGDALpYLSFNPP ) (SEQ ID NO: 30) and #934 (RRRSLPAGDALYLSFNPP) (SEQ ID NO: 3) used for in vitro kinase assays. In vitro kinase reactions were run as described previously 31.

| Sequence | interaction with GEF-H1S (GEF-H1S) | phosphorylation by PAK4 in vitro (PAK4) |
| --- | --- | --- |
| CTPAAPAVPAVPGPPGPRSPQREPQRVSHEQFRAALQLVVDPGDPRSYLDNF (biotin) [amino acids 276-324] | strong interaction | – |
| PRRRSLPAGDALYLSFNPP | – | phosphorylated |
| RQSLLGSRRGRSSLSLAK [GEF-H1 residues 55-72] | – | phosphorylated |
| RRRSLPAGDALYLSFNPP [amino acids 807-824, GEF-H1S peptide surrounding Ser 810] | – | high affinity substrate |
